Experimental data taken from paper PMC9234707.
Values belong to the binder of their own block, whether it stands above or below them.

Legend:
[1] = molecular target: BMPR2 GBD-Fc (WT) (human) (UniProt Q13873); experiment: SPR; BIAcore 3000; receptor-Fc (about 500 RU BMPR2-Fc WT or variants, 150 RU ACVR2A-Fc) captured on immobilised anti-human IgG (Fc), CM5 chip; single injections of 80 nM GF, single curve fits, averages of two independent injections; 25 °C; HBS/EPS (0.01 M Hepes, 0.5 M NaCl, 3 mM EDTA, 0.005% Tween 20, pH 7.4) with 0.1% bovine serum albumin; 50 μl/min; 1:1 binding model, KD = kd/ka
ACVR2A GBD-Fc (human) [2] = molecular target: ACVR2A GBD-Fc (human) (UniProt P27037); experiment: as above
ACVR2A GBD-Fc (human) [3] = molecular target: ACVR2A GBD-Fc (human) (UniProt P27037); experiment: SPR; BIAcore 3000; receptor-Fc captured on immobilised anti-human IgG (Fc), CM5 chip; titration, global fit of 2.5, 5.0, 10.0, 20.0 and 40.0 nM GF injections; 25 °C; HBS/EPS (0.01 M Hepes, 0.5 M NaCl, 3 mM EDTA, 0.005% Tween 20, pH 7.4) with 0.1% bovine serum albumin; 50 μl/min; 1:1 binding model, KD = kd/ka
[4] = molecular target: BMPR2 GBD-Fc (WT) (human) (UniProt Q13873); experiment: as above
[5] = molecular target: BMPR2-Fc variant Q42R (human) (UniProt Q13873); experiment: SPR; BIAcore 3000; receptor-Fc (about 500 RU BMPR2-Fc WT or variants, 150 RU ACVR2A-Fc) captured on immobilised anti-human IgG (Fc), CM5 chip; single injections of 80 nM GF, single curve fits, averages of two independent injections; 25 °C; HBS/EPS (0.01 M Hepes, 0.5 M NaCl, 3 mM EDTA, 0.005% Tween 20, pH 7.4) with 0.1% bovine serum albumin; 50 μl/min; 1:1 binding model, KD = kd/ka
[6] = molecular target: BMPR2-Fc variant Q92H (human) (UniProt Q13873); experiment: as above
[7] = molecular target: BMPR2-Fc variant S107P (human) (UniProt Q13873); experiment: as above
[8] = molecular target: BMPR2-Fc variant G47D (human) (UniProt Q13873); experiment: as above
[9] = molecular target: BMPR2 GBD-Fc (WT) (human) (UniProt Q13873); experiment: as above; remark: listed apart in the source
[10] = molecular target: BMPR2-Fc variant Q42R (human) (UniProt Q13873); experiment: SPR; BIAcore 3000; receptor-Fc captured on immobilised anti-human IgG (Fc), CM5 chip; titration, global fit of 2.5, 5.0, 10.0, 20.0 and 40.0 nM GF injections; 25 °C; HBS/EPS (0.01 M Hepes, 0.5 M NaCl, 3 mM EDTA, 0.005% Tween 20, pH 7.4) with 0.1% bovine serum albumin; 50 μl/min; 1:1 binding model, KD = kd/ka
[11] = molecular target: BMPR2-Fc variant Q92H (human) (UniProt Q13873); experiment: as above
[12] = molecular target: BMPR2-Fc variant S107P (human) (UniProt Q13873); experiment: as above
[13] = molecular target: BMPR2-Fc variant G47D (human) (UniProt Q13873); experiment: as above
[14] = molecular target: BMPR2 GBD-Fc (WT) (human) (UniProt Q13873); experiment: as above; remark: listed apart in the source

Chain of ACVR2A GBD-Fc (human) (P27037 whole entry): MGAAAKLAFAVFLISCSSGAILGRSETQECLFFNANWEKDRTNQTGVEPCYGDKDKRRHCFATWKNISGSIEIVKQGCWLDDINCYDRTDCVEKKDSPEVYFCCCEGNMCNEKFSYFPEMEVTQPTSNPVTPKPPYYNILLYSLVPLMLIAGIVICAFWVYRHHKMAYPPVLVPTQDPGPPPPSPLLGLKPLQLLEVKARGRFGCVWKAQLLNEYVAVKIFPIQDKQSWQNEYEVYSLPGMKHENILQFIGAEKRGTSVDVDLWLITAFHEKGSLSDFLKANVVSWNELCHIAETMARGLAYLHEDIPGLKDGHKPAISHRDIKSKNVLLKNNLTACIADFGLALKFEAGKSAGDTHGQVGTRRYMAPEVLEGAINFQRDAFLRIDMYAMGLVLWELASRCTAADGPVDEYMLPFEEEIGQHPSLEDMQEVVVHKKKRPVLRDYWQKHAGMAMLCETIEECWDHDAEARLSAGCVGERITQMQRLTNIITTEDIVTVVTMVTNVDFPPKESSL
Chain of BMPR2 GBD-Fc (WT) (human) (Q13873 whole entry): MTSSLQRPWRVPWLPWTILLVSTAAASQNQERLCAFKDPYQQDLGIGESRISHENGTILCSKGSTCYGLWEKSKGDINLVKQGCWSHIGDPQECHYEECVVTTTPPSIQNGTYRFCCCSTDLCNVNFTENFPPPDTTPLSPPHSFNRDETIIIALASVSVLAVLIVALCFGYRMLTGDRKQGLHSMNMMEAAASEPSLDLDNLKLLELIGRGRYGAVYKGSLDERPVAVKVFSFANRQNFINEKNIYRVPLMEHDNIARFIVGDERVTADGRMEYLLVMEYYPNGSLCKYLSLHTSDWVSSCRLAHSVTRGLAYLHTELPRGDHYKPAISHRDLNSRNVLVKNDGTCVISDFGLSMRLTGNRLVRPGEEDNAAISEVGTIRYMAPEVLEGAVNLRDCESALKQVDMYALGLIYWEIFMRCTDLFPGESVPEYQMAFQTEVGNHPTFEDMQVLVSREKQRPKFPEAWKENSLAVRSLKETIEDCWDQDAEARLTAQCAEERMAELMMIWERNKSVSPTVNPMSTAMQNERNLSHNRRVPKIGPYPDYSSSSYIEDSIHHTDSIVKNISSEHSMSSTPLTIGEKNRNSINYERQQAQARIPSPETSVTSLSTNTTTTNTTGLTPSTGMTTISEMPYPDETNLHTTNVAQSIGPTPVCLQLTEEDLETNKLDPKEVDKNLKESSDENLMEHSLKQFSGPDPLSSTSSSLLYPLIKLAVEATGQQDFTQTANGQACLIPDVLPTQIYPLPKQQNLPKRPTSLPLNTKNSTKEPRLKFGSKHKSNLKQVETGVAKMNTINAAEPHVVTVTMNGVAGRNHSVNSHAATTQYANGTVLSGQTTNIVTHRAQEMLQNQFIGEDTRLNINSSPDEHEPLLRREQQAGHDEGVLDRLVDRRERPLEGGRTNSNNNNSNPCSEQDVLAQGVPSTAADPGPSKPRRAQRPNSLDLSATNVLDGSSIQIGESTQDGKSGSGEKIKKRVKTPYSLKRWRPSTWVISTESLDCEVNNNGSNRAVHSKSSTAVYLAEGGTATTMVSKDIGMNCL

Kd [1]: 6.3 nM
koff [1]: 0.0021 s⁻¹
kon [1]: 330000 M⁻¹ s⁻¹
B1: BMP15 (ligand)
chain: QADGISAEVTASSSKHSGPENNQCSLHPFQISFRQLGWDHWIIAPPFYTPNYCKGTCLRVLRDGLNSPNHAIIQNLINQLVDQSVPRPSCVPYKYVPISVLMIEANGSILYKEYEGMIAESCTCR

Kd (ACVR2A GBD-Fc (human) [2]): 0.052 nM
koff (ACVR2A GBD-Fc (human) [2]): 0.00018 s⁻¹
kon (ACVR2A GBD-Fc (human) [2]): 3.5e+06 M⁻¹ s⁻¹
B2: GDF11 (ligand)
chain: NLGLDCDEHSSESRCCRYPLTVDFEAFGWDWIIAPKRYKANYCSGQCEYMFMQKYPHTHLVQQANPRGSAGPCCTPTKMSPINMLYFNDKQQIIYGKIPGMVVDRCGCS

Kd (ACVR2A GBD-Fc (human) [2]): 0.053 nM
koff (ACVR2A GBD-Fc (human) [2]): 7.4e-05 s⁻¹
kon (ACVR2A GBD-Fc (human) [2]): 1.4e+06 M⁻¹ s⁻¹
Kd [1]: 2.3 nM
koff [1]: 0.0018 s⁻¹
kon [1]: 790000 M⁻¹ s⁻¹
Kd (ACVR2A GBD-Fc (human) [3]): 0.0016 nM
koff (ACVR2A GBD-Fc (human) [3]): 9.7e-06 s⁻¹
kon (ACVR2A GBD-Fc (human) [3]): 6.1e+06 M⁻¹ s⁻¹
Kd [4]: 0.71 nM
koff [4]: 0.00062 s⁻¹
kon [4]: 880000 M⁻¹ s⁻¹
Kd [5]: 5 nM
koff [5]: 0.0021 s⁻¹
kon [5]: 420000 M⁻¹ s⁻¹
Kd [6]: 1.8 nM
koff [6]: 0.00072 s⁻¹
kon [6]: 400000 M⁻¹ s⁻¹
Kd [7]: 2.6 nM
koff [7]: 0.0015 s⁻¹
kon [7]: 610000 M⁻¹ s⁻¹
Kd [8]: 2.9 nM
koff [8]: 0.0013 s⁻¹
kon [8]: 440000 M⁻¹ s⁻¹
Kd [9]: 4.1 nM
kon [9]: 470000 M⁻¹ s⁻¹
Kd [10]: 1.4 nM
koff [10]: 0.00082 s⁻¹
kon [10]: 580000 M⁻¹ s⁻¹
Kd [11]: 1.1 nM
koff [11]: 0.00044 s⁻¹
kon [11]: 400000 M⁻¹ s⁻¹
Kd [12]: 0.28 nM
koff [12]: 0.00019 s⁻¹
kon [12]: 670000 M⁻¹ s⁻¹
Kd [13]: 1.3 nM
koff [13]: 0.00058 s⁻¹
kon [13]: 430000 M⁻¹ s⁻¹
koff [14]: 0.00082 s⁻¹
B3: activin B (ligand)
chain: GLECDGRTNLCCRQQFFIDFRLIGWNDWIIAPTGYYGNYCEGSCPAYLAGVPGSASSFHTAVVNQYRMRGLNPGTVNSCCIPTKLSTMSMLYFDDEYNIVKRDVPNMIVEECGCA

Kd (ACVR2A GBD-Fc (human) [2]): 1 nM
koff (ACVR2A GBD-Fc (human) [2]): 0.00035 s⁻¹
kon (ACVR2A GBD-Fc (human) [2]): 360000 M⁻¹ s⁻¹
Kd [1]: 2.1 nM
koff [1]: 0.00019 s⁻¹
kon [1]: 91000 M⁻¹ s⁻¹
Kd [4]: 2.4 nM
koff [4]: 5.5e-05 s⁻¹
kon [4]: 23000 M⁻¹ s⁻¹
Kd [5]: 2.5 nM
koff [5]: 0.00021 s⁻¹
kon [5]: 83000 M⁻¹ s⁻¹
Kd [6]: 1.8 nM
koff [6]: 0.00015 s⁻¹
kon [6]: 90000 M⁻¹ s⁻¹
Kd [7]: 0.86 nM
koff [7]: 0.00018 s⁻¹
kon [7]: 210000 M⁻¹ s⁻¹
Kd [8]: 0.58 nM
koff [8]: 3.8e-05 s⁻¹
kon [8]: 65000 M⁻¹ s⁻¹
Kd [9]: 1.8 nM
koff [9]: 0.00017 s⁻¹
kon [9]: 94000 M⁻¹ s⁻¹
Kd [10]: 2.3 nM
koff [10]: 7.9e-05 s⁻¹
kon [10]: 34000 M⁻¹ s⁻¹
Kd [11]: 0.32 nM
koff [11]: 7.8e-05 s⁻¹
kon [11]: 250000 M⁻¹ s⁻¹
Kd [12]: 1 nM
koff [12]: 1.9e-05 s⁻¹
kon [12]: 19000 M⁻¹ s⁻¹
Kd [13]: 0.02 nM
koff [13]: 2.8e-06 s⁻¹
kon [13]: 140000 M⁻¹ s⁻¹
B4: BMP10 (ligand)
chain: NAKGNYCKRTPLYIDFKEIGWDSWIIAPPGYEAYECRGVCNYPLAEHLTPTKHAIIQALVHLKNSQKASKACCVPTKLEPISILYLDKGVVTYKFKYEGMAVSECGCR

Kd [1]: 3.2 nM
koff [1]: 0.00014 s⁻¹
kon [1]: 42000 M⁻¹ s⁻¹
B5: Nodal (ligand)
chain: HHLPDRSQLCRKVKFQVDFNLIGWGSWIIYPKQYNAYRCEGECPNPVGEEFHPTNHAYIQSLLKRYQPHRVPSTCCAPVKTKPLSMLYVDNGRVLLDHHKDMIVEECGCL
